Reference: patent US5985278A (Merck Patent Gesellschaft mit Beschrankter Haftung, priority 1994, dated 1999)
“And” between values parts separate entries of the source, which are not always exact repeats. Equal values may be shown once. Read-outs that look alike come from different tables or passages of the source. One block for each molecule: values may come before it.

Columns and labels:
[1] = molecular target: T1, integrin αvβ3 on human cells (human, UniProt P06756)
[2] = molecular target: purified human placental integrin αvβ3 (human) (UniProt P06756); assay: pre-block competition: ligand pre-bound to αvβ3-coated plates, labelled 17E6 as probe
[3] = molecular target: purified human placental integrin αvβ3 (human) (UniProt P06756); assay: isolated receptor assay, vitronectin on αvβ3-coated plates
[4] = tested on: human melanoma and carcinoma cell lines; assay: αV-mediated cell attachment to vitronectin, cell line panel; assay type: cell-based; details: read-out: IC50 in cellular assay
Protocol: (§1) Cell Attachment Assays were as previously described (Goodman et al., 1991), using hexosaminidase activity (Landegren, 1984) to detect attached cells. Dilutions and cell suspensions were in attachment buffer (RPMI, 1% BSA, 25 mM HEPES; pH 7.4). Matrix proteins were coated onto 96- or 48-well plates, the wells were blocked with BSA and serially diluted MAbs were added to the wells followed by cells (2.5×10^4 -5×10^4). After 1 h at 37° C., non-adherent cells were washed away and attached cells counted against a standard curve run in parallel. Inhibition of attachment was calculated by using wells with no MAbs as reference. Typically, over 70% of added cells had attached to vitronectin at 1 h. Cell attachment to wells coated with BSA alone was routinely less than 5% of specifically attached cells.

[5] = molecular target: purified human placental integrin αvβ3 (human) (UniProt P06756); assay: ELISA on isolated αvβ3
[6] = molecular target: T1, integrin αvβ3 on human cells; assay: cell-based or functional assay
[7] = molecular target: T2, integrin αvβ5 on human cells (human, UniProt P06756); assay: cell-based or functional assay
αvβ1 (V+B2 cells) = assay: Cell attachment to vitronectin mediated by αvβ1 (V+B2 cells); assay type: cell-based; details: FIG. 11
Protocol: as §1

[8] = tested on: αvβ3 (WM164 and M21 cells); assay: Cell attachment to vitronectin mediated by αvβ3 (WM164 and M21 cells); assay type: cell-based, human; details: FIG. 11
Protocol: as §1

purified αvβ3 = assay: ELISA on purified αvβ3; assay type: binding, human; details: FIG. 10
αvβ5 (UCLA-P3 cells) = assay: Cell attachment to vitronectin mediated by αvβ5 (UCLA-P3 cells); assay type: cell-based, human; details: vitronectin, FIG. 11
Protocol: as §1

[9] = molecular target: integrin αvβ1 on V+B2 cells
[10] = molecular target: human αv-integrin chain on the cell surface (human) (UniProt P06756)
[11] = molecular target: purified human placental integrin αvβ3 (human) (UniProt P06756); assay: direct competition with biotinylated vitronectin on αvβ3-coated plates, 70 nM antibody
[12] = molecular target: human αv-integrin chain on the cell surface (human) (UniProt P06756); set-up: IC50, M21 cell attachment to vitronectin: unit not given beside the values
[13] = molecular target: T2, integrin αvβ5 on human cells; set-up: IC50, M21 cell attachment to vitronectin: unit not given beside the values
[14] = molecular target: integrin αIIbβ3 on M21-L-IIb cells (human, UniProt P08514); assay: CELISA, fixed M21-L-IIb cells
[15] = molecular target: human αv-integrin chain on the cell surface (human) (UniProt P06756); remark: listed apart in the source
[16] = molecular target: integrin β3 chain, intracellular pool of M21-L cells (human, UniProt P05106); assay: flow cytometry, permeabilized M21-L cells
[17] = molecular target: human αv-integrin chain on the cell surface (human, UniProt P06756); assay: cell-based or functional assay

Molecule: LM609 (antibody)
IC50, WM793 cell attachment to vitronectin [1]: 0.6 µg/mL

Molecule: CC(C)[C@@H]1NC(=O)[C@@H](Cc2ccccc2)NC(=O)[C@H](CC(=O)O)NC(=O)CNC(=O)[C@H](CCCNC(=N)N)NC1=O [cRGDfV, cyclic peptide: Arg-Gly-Asp-DPhe-Val, reference compound]
IC50 [4]: ~1 µM

B1: 17E6 F(ab')2 fragment (other)
VH: QVQLQQSGAELAEPGASVKMSCKASGYTFSSFWMHWVKQRPGQGLEWIGYINPRSGYTECNEIFRDKATMTADTSSSTAYMQLSGLTSEDSAVYYCASFLGRGAMDYWGQGTSVTVSS
VL: DIQMTQTTSSLSASLGDRVIISCRASQDISNYLSWYQQKPDGTVKLLIFYTSKLHSGVPSRFSGSGSGTDYSLTISNLDQEDIATYFCQQGNTFPYTFGGGTKVEMR
EC50 [5]: 0.001 µg/mL
IC50, WM164 and M21 cell attachment to vitronectin [6]: ~0.5 µg ml^-1 and ~3 nM
IC50, UCLA-P3 cell attachment to vitronectin [7]: ~0.1 µg ml^-1 and ~700 pM

B2: F(ab')2: F(ab')2 fragment of 17E6 prepared by pepsin cleavage (antibody, V domains shown)
VH: B1 VH
VL: B1 VL
IC50, cell attachment mediated by αvβ1 (V+B2 cells) (αvβ1 (V+B2 cells)): ~ 0.1 μg ml^-1
IC50, αvβ3 attachment (WM164 and M21 cells) [8]: ~ 0.5 μg ml^-1
50% saturation in ELISA on isolated αvβ3 (purified αvβ3): ~ 1 ng ml^-1
IC50, cell attachment mediated by αvβ5 (UCLA-P3 cells) (αvβ5 (UCLA-P3 cells)): ~ 0.1 μg ml^-1

B3: 17E6 F(ab') fragment (Fab, V domains shown)
VH: B1 VH
VL: B1 VL
EC50 [5]: 0.001 µg/mL
IC50, WM164 and M21 cell attachment to vitronectin [6]: > 50 µg ml^-1 and > 400 nM
fold activity in cell attachment to vitronectin, against αvβ3 [7]: 10000 fold
fold activity in cell attachment to vitronectin, against αvβ3 [9]: 10000 fold

More lines, now with the values ahead:

% block of labelled 17E6 binding [2]: < 10%
saturation concentration [3]: 5 µg ml^-1 and 10 nM
Molecule: vitronectin (from UniProt P04004) (ligand)

% block of labelled 17E6 binding [2]: < 10%
Molecule: fibrinogen (ligand)

IC50, cellular attachment assay [10]: 0.1 µg/mL
% inhibition of vitronectin binding [11]: < 30%
IC50, M21 cell attachment to vitronectin [12]: 0.1
M21 cell attachment to vitronectin, purified antibody [12]: 85%
IC50, UCLAP3 cell attachment to vitronectin [13]: 0.03 µg/mL
IC50, WM164 and M21 cell attachment to vitronectin [6]: ~0.5 µg ml^-1 and ~3 nM
IC50, WM793 cell attachment to vitronectin [6]: ~0.06 µg/mL
binding result [14]: no binding
IC50, αV-mediated cell attachment [15]: 0.0003 to 0.001 µM
binding result [16]: no binding
B4: monoclonal antibody 17E6 (antibody, V domains shown)
VH: B1 VH
VL: B1 VL

IC50, αV-mediated cell attachment [17]: ~5 µM
Molecule: GRGDSPK [linear peptide GRGDSPK]
